In publication PMC10696396 (2023):

B2: His6-SUMO-HilE (natural protein)
chain: MDAIYLKLDGIEGESRIKGFENQIKLIAYNHNPTKRESGEARGTYIGGLTLTKPVDLATPGLYEHYCNGKTVKEGVLTLCRRDKGAMLPFIIYTLTNVRISRMSNHGDAEGSATETVDLVYSHIRWDIPALASKSKTRRPLHRQALWR
modifications: RED-tris-NTA 2nd Generation dye bound to the His6 tag

Columns and labels:
Assay in all cases: MST
[1] = biological target: B2
[2] = biological target: HilD K279M
[3] = biological target: HilD S216I/S218D
[4] = biological target: EYFP-HilD E102A/K264A/R267A

B1: HilD (full-length, unfused) (natural protein)
chain: MENVTFVSNSHQRPAADNLQKLKSLLTNTRQQIKSQTQQVTIKNLYVSSFTLVCFRSGKLTISNNHDTIYCDEPGMLVLKKEQVVNVTLEEVNGHMDFDILEIPTQRLGALYALIPNEQQTKMAVPTEKAQKIFYTPDFPARREVFEHLKTAFSCTKDTSKGCSNCNNKSCIENEELIPYFLLFLLTAFLRLPESYEIILSSAQITLKERVYNIISSSPSRQWKLTDVADHIFMSTSTLKRKLAEEGTSFSDIYLSARMNQAAKLLRIGNHNVNAVALKCGYDSTSYFIQCFKKYFKTTPSTFIKMANH
[1]
  Kd: 1890 nM

## B2
[2]
  Kd: 2120 nM
[3]
  Kd: 1160 nM

B3: HilE (natural protein)
chain: MDAIYLKLDGIEGESRIKGFENQIKLIAYNHNPTKRESGEARGTYIGGLTLTKPVDLATPGLYEHYCNGKTVKEGVLTLCRRDKGAMLPFIIYTLTNVRISRMSNHGDAEGSATETVDLVYSHIRWDIPALASKSKTRRPLHRQALWR
[4]
  Kd: 1680 nM
